From the supplement of paper PMC9170038

Test system: K4 kissing-loop RNA reporter
Assay: apparent KD of K4 kissing-loop reporter; higher = weaker reporter binding
Settings: Eterna round: R107
Description: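 RNA-MaP round R107: designed RNA switches with theophylline, tryptophan, arginine or FMN aptamers are transcribed on-chip within common flanks. They are titrated with a labelled K4 kissing-loop RNA reporter in RNA-MaP buffer (100 mM Tris pH 7.5, 80 mM KCl, 4 mM MgCl2), without ligand or with the indicated ligand. Median apparent KD per design.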

[1] = input ligand: theophylline 20 uM
[2] = input ligand: tryptophan 2.4 mM
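Further: bound reporter read as fluorescence of individual clusters on recovered sequencing chips by microscopy, with normalized cluster intensities fitted with a binding model.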

| Sequence | apparent KD of K4 kissing-loop reporter (input ligand: FMN 200 uM) | apparent KD of K4 kissing-loop reporter (input ligand: arginine 13.2 mM) | apparent KD of K4 kissing-loop reporter (input ligand: none) | apparent KD of K4 kissing-loop reporter [1] | apparent KD of K4 kissing-loop reporter [2] |
| --- | --- | --- | --- | --- | --- |
| GGUAGCAUGGCGGCCGCCACUCUUCAUUAGUGAUGUUAAUGCCGAGUGGGCAAACUCCGCCAGGAGAGGACCGGGCCAUGCUACC | 82.6 nM | 75.1 nM | 80.8 nM | 62.7 nM | 244 nM |
| ACACAGAGUUGCCGAGUGAUGUUCGGCUUACGAGGACCGGUACGGCCGCCACUCGUUACUCUGUGUUUUGGACACCAAGGCGUCG [Tionzaanon] | 651 nM | 449 nM | 543 nM | 505 nM | 201 nM |
| UUUCGGCCCAGUGAUGUUGGGUGGAGGCGGCGAGGACCGGUACGGCCGCCACUCGGCGCACUGGCGGAGUGAUGUUUCGUGUAUA [Same State Tryptophan A GF 14] | 697 nM | 592 nM | 752 nM | 708 nM | 834 nM |
| GCAGUGAUGUUGCGCAUGUACAGUGGAGUGCGAGGACCGGUACGGCCGCCACUCGUACAGAACAAGCUAAUAUAUGGAUAGGUGA [IX] | 418 nM | 525 nM | 543 nM | 510 nM | 306 nM |
| UGUCAUUGGUCGGCCGCCACUUCAAAAGGUCAAAGACCAGAGUGAUGUUCUUCACGAAACGUGAGAAGGACCGGGACCGAUGACU [TrypBS 12 #SwitchBubble #K4Middle] | 226 nM | 123 nM | 191 nM | 266 nM | 638 nM |
| UUUGGAUUGCGCGAAGAGUGCAAGCGCCAACGAGGACCGGUACGGCCGCCACUCGCGGAGGAGUCCAGUGAUGUUGGACGGCCCG [Laraones] | 271 nM | 276 nM | 281 nM | 290 nM | 185 nM |
| UGCGCUGUGUCCUGAAAUGUCCUCCGGGAUACCAGAGUCUUUUUAUUCCCUUGGCAGCUUGAGUGAUGUUUGAUGCCGUUCUUGU [yvvymullin] | 668 nM | 481 nM | 713 nM | 576 nM | 515 nM |
| CGGAUGUAGUGAUGUUAUAUUAGAUGUAGACGAGGACCGGUACGGCCGCCACUCGAAACGGCUACUAGCGCGUUGCGAGGUGUGC [ExTryptoA.CJ] | 737 nM | 525 nM | 686 nM | 784 nM | 480 nM |
| CGUACGGUUUCUUUCUUUCCGUACGCGUGCCGAGGACCGGUACGGCCGCCACUCGCUACAGCCUAGUGAUGUUAGGCAAUUCUUU | 107 nM | 111 nM | 112 nM | 124 nM | 89.9 nM |
| UGUACCGAGUCAGGAUAUGGCGUCGAAAGACGAAUUCUAGUGAUGUUAGGGAUCUGCGAAAGCAGUCUAGAAGGGACUUGGUACU [FmnBS 26 U36+U68] | 356 nM | 407 nM | 508 nM | 684 nM | 512 nM |
| UAAUAUAACCGAAGGAGCGCGUGGGCGCAGUGAUGUUGCGCCCGACAUCACUUCAACUAAACGCAGGUAGGUCGCGGUAAUAAUA [Arginine B (Excl) V1] | 134 nM | 83.1 nM | 104 nM | 84.2 nM | 98.4 nM |
| UUACCAAGUGAUGUUUGGAAAUAUCCUAGGCAGGAUAUGCGGAAACGCAGAAGGGCCACCUUAUAGUGAAGGAAACUUCGCUAUU [Ex FMN A 2] | 163 nM | 124 nM | 140 nM | 141 nM | 142 nM |
| AGUGAUGUGGGAAGGAGCGGUACAUGACUUCAGUGAUGUUGAAGUGAUGAUUUAGUGAUGUGCCAGGUAGGUCGCCUAGAUGUUA [KL-XARG-B7] | 79.8 nM | 36.7 nM | 68.1 nM | 41.8 nM | 51 nM |
| GCCUAGCAGGGAAGGAGCGCCAUAUAAUUAAAAGUUAAUUAAUGAGUGAUGUUCAAAUAAUGGCAGGUAGGUCGCCCUGCUAGGC [KL-SSArg B9] | 378 nM | 289 nM | 329 nM | 316 nM | 323 nM |
| AAAUAAUGCAGUCACCCAGUGAUGUUGGAAGGAGCGUGCGAAAGCACAGGUAGGUCGCCAAUAAUGAUAAAGUUCAGUGGCUUUA [JR_Nu_ExcArginiA_Sub030] | 766 nM | 682 nM | 454 nM | 464 nM | 659 nM |
| CAUGGAGUGAUGCUCCAUGAUCGGGCUUGGCAGGAUAUGGGAUCUUCCAGAAGGGCCGAUCCCAGCGAGUGAUGUUCGCUGGUCU [Exclusion FMN A GF 27] | 119 nM | 107 nM | 113 nM | 116 nM | 108 nM |
| ACGCUAGCUACCGAAAGGUAGCUAGCGAGUGAGGAUAUGUGGAAACACAGAAGGCACAGCGCAGUGAUGUUGUGCGGCGAAAGCC [whbob_SS_FMNA__2th166] | 462 nM | 275 nM | 418 nM | 231 nM | 803 nM |
| AAGGCAAUUCGAGGAUAUCACAUACACUCCUUGAAUCAAGGAGUGAUGUUCCUUGAAGUGUAUGCAUGAGAAGGCGAAUUGCCUU [#05 K4 FMN B Same State] | 113 nM | 86.5 nM | 95.4 nM | 99.3 nM | 95.3 nM |
| CGCCGGAAGGCGAGCGCUCCCACUCCGGAAGGAGCGCCCGAAAGGGCAGGUAGGUCGCCGGAGUGAUGUUCCGGUGGAGGGCUCG [#2 Exclusion - Arginine A Attempt #29 (Inspired by Omei)] | 125 nM | 119 nM | 121 nM | 371 nM | 187 nM |
| AGACUACCACACUGUCAAUAGACAGUGGACUAGGAUAUGCUGAUAAGCAGAAGGAGUGAUGUUCCAAGGUAGUCAAUAAAAUAAU [FmnAX 13 G28+A66] | 294 nM | 257 nM | 309 nM | 396 nM | 279 nM |
| GUGUGGAUCCGAAGGAGCGUCCGCAAUCCAGUGAUGUUGGGUGUUGGUUUUAGUAGACGAGGACAGGUAGGUCGCGGAUUUACAA [Same State Arginie B GF 23] | 133 nM | 104 nM | 153 nM | 110 nM | 105 nM |
| UUAGGAGUGGGAGGAUAUCCUAAUGUGGGUGAUGUUAGUGAUGUUGAAAGUGUAGUGAUGUUGUGCGGAGAAGGUCCAGUGUUGA [BDazzled - #11 - Exc. FMN B] | 212 nM | 133 nM | 210 nM | 192 nM | 157 nM |

| Sequence | apparent KD of K4 kissing-loop reporter (input ligand: FMN 200 uM) | apparent KD of K4 kissing-loop reporter (input ligand: arginine 13.2 mM) | apparent KD of K4 kissing-loop reporter (input ligand: none) | apparent KD of K4 kissing-loop reporter [1] | apparent KD of K4 kissing-loop reporter [2] |
| --- | --- | --- | --- | --- | --- |
| UGUUCAAGUGAUGUUUGAGACUAGGUGGAUACCAGCGCAUGCAGUCGCCCUUGGCAGCCAGAAACCAACGCCGCGCGCUUCGGCU [theeternabot_sameState_KL_Theo_A_39] | 342 nM | 325 nM | 464 nM | 350 nM | 334 nM |
| AUUAACCUUUUAGCUAUAUUUUUAUGUGAUACCAGACAUGGCAUAGUCCCUUGGCAGCACAUUAUAUUUACGAGUGAUGUUCGAA [JR_SSTheophyA_Sub026] | 243 nM | 250 nM | 261 nM | 271 nM | 194 nM |
| AAGGGCUAGGCGGCCGCCACUGGUCGUGAACACAUACGAGCCAGUGAUGUUGGUAUUGUGUGCGGCAGGACCGGGCCUAGCCGAA [Exclusion - Tryptophan B (Freestyle 24)] | 343 nM | 338 nM | 391 nM | 409 nM | 462 nM |
| UUUGGUUUCUCGGCCGCCACUCGUUGGUUAUGGGCUUCAGGGAUAUAGUGAUGUUAUGUAUAGAAGAGGACCGGGAGAAGGUUUG [ExTryptoB.Dt] | 343 nM | 343 nM | 318 nM | 408 nM | 301 nM |
| GUCAUCAGAUCGCAAGAUCUGAUAGCCGAUACCAGCGCGAAGGUGCGCCCUUGGCAGCGGCACCGAGUGAUGUUCGGUCAGACGA [#2 Same State - Theophylline A Attempt #5 (HarryS)] | 526 nM | 392 nM | 514 nM | 330 nM | 427 nM |
| CUAGCUAGCAUGGAAACAUGCUAGCUAGAUUAGGAUAUGACGUAAGUCAGAAGGGAUAAAUGGAGUGAUGUUCCGGACGCAAGUC [#2 Same State - FMN A Attempt #4 (HarryS)] | 255 nM | 237 nM | 247 nM | 295 nM | 186 nM |
| GGGUGGUAGGCGGCCGCCACUCUGAGCACCCACUGAGUGAUGUUCGUGGCGUAAGCCUGUUCAUAGAGGACCGGGUUUGUUGUUC [Exclusion Tryptophan B GF 16] | 507 nM | 252 nM | 514 nM | 470 nM | 376 nM |
| GGCAGUGAUGUUGCCUAAGCAACGCAUGCGGAGGAUAUUCGUUCGGGAAGAAGGCCGCAGCGUUCUCUCGAGUGAUGUUCGAGUA [Same State FMN A GF 21] | 161 nM | 176 nM | 176 nM | 171 nM | 166 nM |
| UGUACCGAGUCAGGAUAUCAACGACUGACAAAAGUCGGUCGAAUAUCCAGUGAUGUUGGAAAUAAAUGAGAAGGGACUUGGUACU [FmnBS 14 #SwitchBubble #StaticStem] | 125 nM | 258 nM | 276 nM | 264 nM | 265 nM |
| AAGUAGCUCUCGGCCGCCACUCCUCAGUGAUGUUGAGAUAUUAAGAGCCAAUUGGCUCAUAUAAAGAGGACCGGGAGAGCUACAA [AK4 SS Tryptophan B] | 248 nM | 276 nM | 357 nM | 282 nM | 128 nM |
| CGCGCGCGUUGAGAGGUGCGCGCGAAUGAUACCAGUAUAUAAGAAUACCCUUGGCAGCAUAAGAAAGAUAUAGUGAUGUUGUAUA [SSTheophA.F] | 346 nM | 130 nM | 250 nM | 308 nM | 228 nM |
| UGUGAACAAAAGUAGAGUGGACCACUAUAGCGAGGACCGGUACGGCCGCCACUCGUGUAUGAAUUCAGUGAUGUUGAAAAGAGCU [whbob_EX_Tryp_A_t11] | 131 nM | 187 nM | 138 nM | 254 nM | 134 nM |
| GUGAAUGGCUGAGCAGCCGUGGUACGAGAUACCAGUGAUUUCGAUCACCCUUGGCAGCUCGGCGUGAGUGAUGUUCACGCUACAC [Theo A SS t12a] | 273 nM | 278 nM | 300 nM | 330 nM | 270 nM |
| UGUGUUGUUGUGAUGUUUAGUGUUGUUGGGCAGGAUAUCGUAGAGGCGAGAAGGGCUUGUGUGCUGUAUGAGUGAUGUUUGUAGG [xrrxmullin] | 372 nM | 238 nM | 428 nM | 262 nM | 322 nM |
| AUUAAUUUCAGAGGAUAUCGUUAUUUUUUAUAUUUUAUUCAUUUAUGCAGUGAUGUUGCUAUUAAUCGAGAAGGCUGAUUUAUAA [JR_ExcFMNB_Sub003] | 85.5 nM | 114 nM | 47.1 nM | 120 nM | 49.4 nM |
| AAUAUCUAGUAUAUAUUUUAUAAAACAGAUACCAGUGAUUAUAUACACCCUUGGCAGCUGGACGAGUGAUGUUCGUAUAUAUUAA [JR_SSTheophyA_Sub008] | 118 nM | 188 nM | 147 nM | 244 nM | 89 nM |
| UUUAACGAGUGAUGUUCGAAAAGUAAUGGUUAGGAUAUCGUUUUUUCGAGAAGGAACCUCGAAGUGAUACGAAAGUAUCGCUUCG [FMN A 2] | 173 nM | 428 nM | 264 nM | 466 nM | 240 nM |
| UGUCUUCAGUGAUGUUGAUGACAACACUUAAAGGAUAUGCGAGAGAGCAGAAGGUUAAACAACGCGCAAAUCAAGGAGGGUCUAG [theeternabot_exclusion_KL_FMN_A_30] | 193 nM | 161 nM | 178 nM | 196 nM | 174 nM |
| GUAUGUGAUGGAAACAUCGCAUACACUGAUACCAGUAUCGAUAGAUACCCUUGGCAGCAGAAAACUGCAAUUGGAGUGAUGUUCC [Ex Theophylline A K4 1] | 213 nM | 175 nM | 229 nM | 216 nM | 201 nM |
| AGGAUCACGUCAGUGAUGUUGACAAGAGAUACCAGAGACGAAAGUCUCCCUUGGCAGCUCAUCGUGAUCCGUGACAAAGGUCACA [Omei KL hio A SS C v3] | 262 nM | 135 nM | 143 nM | 155 nM | 189 nM |
| AAUUCAGCUAGUGAUGUUAGCGUAGAGUGCAAGGAUAUCCCUGUCAGGAGAAGGUGCGUAGAACGUUUGCCAUCAGAUUGUCCCA [theeternabot_exclusion_KL_FMN_A_48] | 176 nM | 97.2 nM | 118 nM | 104 nM | 109 nM |
